# IntAct's records for PubMed 33368531
# Target: T1, ofd1_human OFD1 (UniProt O75665)
# T1 sequence: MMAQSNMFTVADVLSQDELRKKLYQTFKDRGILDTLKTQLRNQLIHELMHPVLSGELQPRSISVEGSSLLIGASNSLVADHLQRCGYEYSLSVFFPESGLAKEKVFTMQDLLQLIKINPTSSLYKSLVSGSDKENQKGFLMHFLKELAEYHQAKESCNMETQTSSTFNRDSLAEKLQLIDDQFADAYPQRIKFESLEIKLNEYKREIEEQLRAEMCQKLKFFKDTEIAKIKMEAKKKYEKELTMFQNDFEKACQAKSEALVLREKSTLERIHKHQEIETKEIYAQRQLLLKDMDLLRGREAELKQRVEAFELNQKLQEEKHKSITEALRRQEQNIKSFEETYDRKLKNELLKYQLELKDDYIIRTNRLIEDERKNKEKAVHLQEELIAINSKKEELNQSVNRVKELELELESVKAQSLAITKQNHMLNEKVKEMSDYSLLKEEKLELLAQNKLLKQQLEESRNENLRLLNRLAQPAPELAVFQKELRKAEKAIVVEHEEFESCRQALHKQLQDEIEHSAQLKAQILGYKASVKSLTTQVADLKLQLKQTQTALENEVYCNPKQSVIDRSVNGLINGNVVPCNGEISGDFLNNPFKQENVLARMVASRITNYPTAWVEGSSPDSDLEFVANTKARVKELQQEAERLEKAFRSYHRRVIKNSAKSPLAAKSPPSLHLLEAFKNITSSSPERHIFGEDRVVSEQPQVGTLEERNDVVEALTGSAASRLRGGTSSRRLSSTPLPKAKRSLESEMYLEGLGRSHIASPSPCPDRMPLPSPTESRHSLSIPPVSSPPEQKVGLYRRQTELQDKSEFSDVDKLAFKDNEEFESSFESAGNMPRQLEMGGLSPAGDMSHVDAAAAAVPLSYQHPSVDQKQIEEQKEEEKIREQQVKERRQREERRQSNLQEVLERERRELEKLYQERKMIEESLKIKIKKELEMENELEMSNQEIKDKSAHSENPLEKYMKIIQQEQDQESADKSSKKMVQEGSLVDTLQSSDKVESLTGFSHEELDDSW
substance,measurement,value
Microtubule-associated protein 1 light chain 3 beta (Homo sapiens) (from UniProt Q9GZQ8) F52A;L53A,effect of a mutation on the interaction,disrupting interaction
